Assay results published in patent publication US20140274782A1, “AFFINITY REAGENTS AND METHODS FOR DETECTION, PURIFICATION, AND PROTEOMIC ANALYSIS OF METHYLATED PROTEINS” (The Board of Trustees of the Leland Stanford Junior …, priority 2013, published 2014).

Experiments:
Test in all cases: ProtoArray methylated with G9a SET domain
[1] = molecular target: AP1S1, G9a-methylated (human) (UniProt P61966)
[2] = molecular target: ARL6IP1, G9a-methylated (human) (UniProt Q15041)
[3] = molecular target: C10orf83, G9a-methylated (human) (UniProt Q8NDC4)
[4] = molecular target: C11orf73, G9a-methylated (human) (UniProt Q53FT3)
[5] = molecular target: C12orf60, G9a-methylated (human) (UniProt Q5U649)
[6] = molecular target: C1QTNF6, G9a-methylated (human) (UniProt Q9BXI9)
[7] = molecular target: CA13, G9a-methylated (human) (UniProt Q8N1Q1)
[8] = molecular target: CAB39L, G9a-methylated (human) (UniProt Q9H9S4)
[9] = molecular target: CD79A, G9a-methylated (human) (UniProt P11912)
[10] = molecular target: CDC2, G9a-methylated (human) (UniProt P06493)
[11] = molecular target: CDKL5, G9a-methylated (human) (UniProt O76039)
[12] = molecular target: CMTM3, G9a-methylated (human) (UniProt Q96MX0)
[13] = molecular target: CTXN1, G9a-methylated (human) (UniProt P60606)
[14] = molecular target: DIRAS1, G9a-methylated (human) (UniProt O95057)
[15] = molecular target: FKBP14, G9a-methylated (human) (UniProt Q9NWM8)
[16] = molecular target: FTH1 (hit 104), G9a-methylated (human) (UniProt P02794)
[17] = molecular target: FTH1 (hit 109), G9a-methylated (human) (UniProt P02794)
[18] = molecular target: GAL, G9a-methylated (human) (UniProt P22466)
[19] = molecular target: GPX5, G9a-methylated (human) (UniProt O75715)
[20] = molecular target: HPCAL4, G9a-methylated (human) (UniProt Q9UM19)
[21] = molecular target: HS3ST1, G9a-methylated (human) (UniProt O14792)
[22] = molecular target: KCTD7, G9a-methylated (human) (UniProt Q96MP8)
[23] = molecular target: KRR1, G9a-methylated (human) (UniProt Q13601)
[24] = molecular target: LYPLAL1, G9a-methylated (human) (UniProt Q5VWZ2)
[25] = molecular target: MAGEH1, G9a-methylated (human) (UniProt Q9H213)
[26] = molecular target: MOBKL3, G9a-methylated (human) (UniProt Q9Y3A3)
[27] = molecular target: MRPL21, G9a-methylated (human) (UniProt Q7Z2W9)
[28] = molecular target: Magmas, G9a-methylated (human) (UniProt Q9Y3D7)
[29] = molecular target: PHF20L1, G9a-methylated (human) (UniProt A8MW92)
[30] = molecular target: PPARG, G9a-methylated (human) (UniProt P37231)
[31] = molecular target: RPL14, G9a-methylated (human) (UniProt P50914)
[32] = molecular target: RTN1, G9a-methylated (human) (UniProt Q16799)
[33] = molecular target: SCGB1A1, G9a-methylated (human) (UniProt P11684)
[34] = molecular target: SEC22B, G9a-methylated (human) (UniProt O75396)
[35] = molecular target: SERPINB2, G9a-methylated (human) (UniProt P05120)
[36] = molecular target: SMYD5, G9a-methylated (human) (UniProt Q6GMV2)
[37] = molecular target: SNFT, G9a-methylated (human) (UniProt Q9NR55)
[38] = molecular target: TCTA, G9a-methylated (human) (UniProt P57738)
[39] = molecular target: TMEM97, G9a-methylated (human) (UniProt Q5BJF2)
[40] = molecular target: TTC27, G9a-methylated (human) (UniProt Q6P3X3)
[41] = molecular target: UBE2S, G9a-methylated (human) (UniProt Q16763)
[42] = molecular target: VPS29, G9a-methylated (human) (UniProt Q9UBQ0)
[43] = molecular target: YPEL5, G9a-methylated (human) (UniProt P62699)
[44] = molecular target: ZBP1, G9a-methylated (human) (UniProt Q9H171)
[45] = molecular target: ZRANB1, G9a-methylated (human) (UniProt Q9UGI0)

Chain of 3× Flag-3×MBT (designed binder) (Q9Y468 258-598): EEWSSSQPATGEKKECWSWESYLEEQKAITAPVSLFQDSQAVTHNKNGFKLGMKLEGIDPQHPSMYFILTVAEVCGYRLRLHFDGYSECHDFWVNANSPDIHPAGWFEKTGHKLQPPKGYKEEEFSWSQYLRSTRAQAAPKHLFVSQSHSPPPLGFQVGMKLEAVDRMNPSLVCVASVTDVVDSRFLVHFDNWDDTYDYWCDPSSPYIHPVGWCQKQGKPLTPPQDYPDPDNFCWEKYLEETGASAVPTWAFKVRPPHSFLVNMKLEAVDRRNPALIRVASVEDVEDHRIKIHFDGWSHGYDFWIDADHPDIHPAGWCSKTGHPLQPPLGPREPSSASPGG
Chain of SNFT, G9a-methylated (human) (Q9NR55 whole entry): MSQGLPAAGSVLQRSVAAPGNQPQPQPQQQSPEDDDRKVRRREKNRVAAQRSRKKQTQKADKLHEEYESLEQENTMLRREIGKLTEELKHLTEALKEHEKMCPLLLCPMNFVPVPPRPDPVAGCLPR
Chain of RTN1, G9a-methylated (human) (Q16799 other isoform, or with tags, fused parts or gaps limits assumed): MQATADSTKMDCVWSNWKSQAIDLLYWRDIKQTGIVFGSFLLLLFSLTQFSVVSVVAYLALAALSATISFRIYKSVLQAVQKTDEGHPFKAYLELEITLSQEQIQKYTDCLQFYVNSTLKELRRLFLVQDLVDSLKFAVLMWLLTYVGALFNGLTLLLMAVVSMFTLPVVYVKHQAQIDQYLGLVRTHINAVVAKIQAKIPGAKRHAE
Chain of CD79A, G9a-methylated (human) (P11912 33-226 limits assumed): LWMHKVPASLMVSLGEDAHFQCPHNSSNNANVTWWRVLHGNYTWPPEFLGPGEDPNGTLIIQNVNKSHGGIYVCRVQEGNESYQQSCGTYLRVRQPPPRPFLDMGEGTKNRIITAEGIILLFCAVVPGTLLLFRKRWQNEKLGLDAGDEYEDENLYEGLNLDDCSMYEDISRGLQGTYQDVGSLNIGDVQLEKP
Chain of Magmas, G9a-methylated (human) (Q9Y3D7 whole entry): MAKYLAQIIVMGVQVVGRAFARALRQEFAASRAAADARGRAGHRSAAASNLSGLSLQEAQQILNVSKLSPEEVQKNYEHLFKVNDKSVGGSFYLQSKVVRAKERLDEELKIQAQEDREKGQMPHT
Chain of FTH1 (hit 104), G9a-methylated (human) (P02794 whole entry): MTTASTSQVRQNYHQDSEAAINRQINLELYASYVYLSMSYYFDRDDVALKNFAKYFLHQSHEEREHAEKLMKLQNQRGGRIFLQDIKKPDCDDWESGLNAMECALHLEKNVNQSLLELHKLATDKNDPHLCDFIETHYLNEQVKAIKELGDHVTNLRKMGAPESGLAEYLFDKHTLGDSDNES
Chain of FTH1 (hit 109), G9a-methylated (human) (P02794 whole entry): as above
Chain of GAL, G9a-methylated (human) (P22466 20-123 limits assumed): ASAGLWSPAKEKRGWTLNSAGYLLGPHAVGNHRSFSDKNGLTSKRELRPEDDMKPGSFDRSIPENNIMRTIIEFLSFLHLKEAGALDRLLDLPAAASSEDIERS
Chain of CMTM3, G9a-methylated (human) (Q96MX0 whole entry): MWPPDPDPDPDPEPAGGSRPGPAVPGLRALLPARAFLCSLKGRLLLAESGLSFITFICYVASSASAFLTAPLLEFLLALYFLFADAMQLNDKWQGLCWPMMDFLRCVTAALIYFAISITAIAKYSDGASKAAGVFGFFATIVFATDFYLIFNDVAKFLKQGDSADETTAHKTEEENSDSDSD
Chain of PPARG, G9a-methylated (human) (P37231 29-505 limits assumed): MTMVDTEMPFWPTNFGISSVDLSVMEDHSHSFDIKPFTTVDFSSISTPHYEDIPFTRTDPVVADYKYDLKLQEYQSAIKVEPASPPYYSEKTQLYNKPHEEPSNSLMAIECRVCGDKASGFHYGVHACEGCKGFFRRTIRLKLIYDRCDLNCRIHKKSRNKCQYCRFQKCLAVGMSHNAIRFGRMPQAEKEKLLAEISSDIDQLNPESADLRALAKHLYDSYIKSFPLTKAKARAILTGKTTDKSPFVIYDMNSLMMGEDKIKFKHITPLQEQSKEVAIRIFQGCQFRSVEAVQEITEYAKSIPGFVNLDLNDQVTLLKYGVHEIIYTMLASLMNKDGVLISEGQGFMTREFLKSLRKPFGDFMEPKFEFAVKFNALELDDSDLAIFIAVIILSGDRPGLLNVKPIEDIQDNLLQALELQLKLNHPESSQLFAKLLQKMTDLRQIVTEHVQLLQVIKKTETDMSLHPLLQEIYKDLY
Chain of CTXN1, G9a-methylated (human) (P60606 whole entry): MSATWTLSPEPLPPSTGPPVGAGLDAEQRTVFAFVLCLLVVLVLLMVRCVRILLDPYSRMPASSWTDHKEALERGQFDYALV
Chain of YPEL5, G9a-methylated (human) (P62699 whole entry): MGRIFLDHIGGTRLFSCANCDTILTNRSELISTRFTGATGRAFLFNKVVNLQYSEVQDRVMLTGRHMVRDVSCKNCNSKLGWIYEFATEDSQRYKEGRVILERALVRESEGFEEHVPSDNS
Chain of SMYD5, G9a-methylated (human) (Q6GMV2 whole entry): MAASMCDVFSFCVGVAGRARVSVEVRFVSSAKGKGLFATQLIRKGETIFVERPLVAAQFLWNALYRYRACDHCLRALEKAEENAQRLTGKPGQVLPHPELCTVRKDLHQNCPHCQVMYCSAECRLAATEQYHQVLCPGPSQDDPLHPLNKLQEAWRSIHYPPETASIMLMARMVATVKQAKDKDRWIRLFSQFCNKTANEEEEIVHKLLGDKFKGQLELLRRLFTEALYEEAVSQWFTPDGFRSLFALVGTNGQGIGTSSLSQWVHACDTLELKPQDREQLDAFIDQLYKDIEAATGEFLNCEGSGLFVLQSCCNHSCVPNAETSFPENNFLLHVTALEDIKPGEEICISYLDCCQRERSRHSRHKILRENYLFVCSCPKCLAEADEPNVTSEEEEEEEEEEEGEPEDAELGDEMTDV
Chain of CDKL5, G9a-methylated (human) (O76039 other isoform, or with tags, fused parts or gaps limits assumed): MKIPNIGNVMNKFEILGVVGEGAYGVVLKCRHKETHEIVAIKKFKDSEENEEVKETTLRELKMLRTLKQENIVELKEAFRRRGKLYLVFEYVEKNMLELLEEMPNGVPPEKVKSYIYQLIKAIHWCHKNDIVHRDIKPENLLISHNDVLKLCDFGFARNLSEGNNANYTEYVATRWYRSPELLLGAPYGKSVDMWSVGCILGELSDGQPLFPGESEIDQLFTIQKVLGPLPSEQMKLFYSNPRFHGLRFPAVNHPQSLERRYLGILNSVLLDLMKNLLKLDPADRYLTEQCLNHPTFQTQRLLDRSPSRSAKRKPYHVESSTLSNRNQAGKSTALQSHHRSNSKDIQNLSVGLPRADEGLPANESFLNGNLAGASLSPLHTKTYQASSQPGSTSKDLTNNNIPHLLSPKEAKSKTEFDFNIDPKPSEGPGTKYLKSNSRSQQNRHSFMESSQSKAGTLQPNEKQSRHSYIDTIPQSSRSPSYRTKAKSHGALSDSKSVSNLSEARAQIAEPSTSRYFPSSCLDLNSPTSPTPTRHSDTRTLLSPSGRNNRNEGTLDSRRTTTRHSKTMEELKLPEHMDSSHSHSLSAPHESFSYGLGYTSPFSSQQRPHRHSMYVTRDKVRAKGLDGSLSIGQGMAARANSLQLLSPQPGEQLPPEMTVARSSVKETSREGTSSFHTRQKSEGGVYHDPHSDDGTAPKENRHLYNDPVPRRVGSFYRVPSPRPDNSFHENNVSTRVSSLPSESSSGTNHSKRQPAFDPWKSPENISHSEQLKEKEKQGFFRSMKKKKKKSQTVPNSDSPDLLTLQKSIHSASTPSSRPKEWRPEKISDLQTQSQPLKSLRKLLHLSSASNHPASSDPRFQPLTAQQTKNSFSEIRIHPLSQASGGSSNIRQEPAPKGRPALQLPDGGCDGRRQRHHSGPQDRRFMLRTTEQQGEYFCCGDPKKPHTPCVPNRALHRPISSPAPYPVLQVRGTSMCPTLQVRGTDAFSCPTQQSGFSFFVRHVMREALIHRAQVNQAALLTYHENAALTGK
Chain of CDC2, G9a-methylated (human) (P06493 whole entry): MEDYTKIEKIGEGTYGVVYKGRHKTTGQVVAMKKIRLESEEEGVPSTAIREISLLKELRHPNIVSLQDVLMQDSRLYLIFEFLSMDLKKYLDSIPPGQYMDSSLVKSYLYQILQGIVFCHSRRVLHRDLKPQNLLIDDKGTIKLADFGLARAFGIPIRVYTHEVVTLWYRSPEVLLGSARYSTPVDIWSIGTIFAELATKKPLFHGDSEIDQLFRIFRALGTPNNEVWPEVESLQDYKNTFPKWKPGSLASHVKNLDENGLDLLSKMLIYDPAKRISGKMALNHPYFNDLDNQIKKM
Chain of SEC22B, G9a-methylated (human) (O75396 whole entry): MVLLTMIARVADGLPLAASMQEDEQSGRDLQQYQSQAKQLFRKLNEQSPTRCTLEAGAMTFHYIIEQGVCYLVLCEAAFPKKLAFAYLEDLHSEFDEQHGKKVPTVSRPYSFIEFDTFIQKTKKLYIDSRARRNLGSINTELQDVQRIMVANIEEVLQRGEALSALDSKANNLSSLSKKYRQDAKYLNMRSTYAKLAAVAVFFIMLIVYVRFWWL
Chain of SERPINB2, G9a-methylated (human) (P05120 whole entry): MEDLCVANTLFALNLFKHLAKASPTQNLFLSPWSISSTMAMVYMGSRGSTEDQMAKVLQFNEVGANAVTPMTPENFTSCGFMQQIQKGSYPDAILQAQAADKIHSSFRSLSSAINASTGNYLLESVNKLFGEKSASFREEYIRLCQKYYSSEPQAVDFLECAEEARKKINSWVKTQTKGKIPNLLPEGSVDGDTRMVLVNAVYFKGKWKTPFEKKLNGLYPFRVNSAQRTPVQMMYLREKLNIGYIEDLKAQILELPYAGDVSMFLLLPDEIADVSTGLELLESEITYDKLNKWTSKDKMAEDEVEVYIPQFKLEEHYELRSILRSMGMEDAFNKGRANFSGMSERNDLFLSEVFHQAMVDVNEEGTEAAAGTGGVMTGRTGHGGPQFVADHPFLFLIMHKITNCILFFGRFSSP
Chain of SCGB1A1, G9a-methylated (human) (P11684 22-91 limits assumed): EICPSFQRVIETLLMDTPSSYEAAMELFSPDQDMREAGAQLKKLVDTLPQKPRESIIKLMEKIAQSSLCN

Substance: 3× Flag-3×MBT (designed binder)
- G9a Average SNR [1]: 16.6
- G9a Average SNR [2]: 21.8
- G9a Average SNR [3]: 15.4
- G9a Average SNR [4]: 13.5
- G9a Average SNR [5]: 12.4
- G9a Average SNR [6]: 16.4
- G9a Average SNR [7]: 13
- G9a Average SNR [8]: 14.6
- G9a Average SNR [9]: 13.8
- G9a Average SNR [10]: 25.3
- G9a Average SNR [11]: 19.7
- G9a Average SNR [12]: 14.1
- G9a Average SNR [13]: 19.7
- G9a Average SNR [14]: 29.2
- G9a Average SNR [15]: 15
- G9a Average SNR [16]: 30.4
- G9a Average SNR [17]: 38.7
- G9a Average SNR [18]: 13.1
- G9a Average SNR [19]: 25.5
- G9a Average SNR [20]: 11.5
- G9a Average SNR [21]: 13.3
- G9a Average SNR [22]: 14.7
- G9a Average SNR [23]: 29.8
- G9a Average SNR [24]: 15.7
- G9a Average SNR [25]: 44
- G9a Average SNR [26]: 13.6
- G9a Average SNR [27]: 23.3
- G9a Average SNR [28]: 13.9
- G9a Average SNR [29]: 21.5
- G9a Average SNR [30]: 12.8
- G9a Average SNR [31]: 18.4
- G9a Average SNR [32]: 14.7
- G9a Average SNR [33]: 19.6
- G9a Average SNR [34]: 12.6
- G9a Average SNR [35]: 17.9
- G9a Average SNR [36]: 20.7
- G9a Average SNR [37]: 18.1
- G9a Average SNR [38]: 16.4
- G9a Average SNR [39]: 21.2
- G9a Average SNR [40]: 20.7
- G9a Average SNR [41]: 25
- G9a Average SNR [42]: 16.6
- G9a Average SNR [43]: 13.4
- G9a Average SNR [44]: 14.7
- G9a Average SNR [45]: 13.2
